Measurements as given in US12281340B2, “Method of producing N-acyl-amino group-containing compound” (AJINOMOTO CO., INC., priority 2018, dated 2025).

Tests used:
[1] = Synthesis of N-acylamino acids from various fatty acids using purified acylamino acid synthetase, UPLC-MS detection; type: biochemical; parameters: key: +: Detected; −: Not detected
How it was run: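 Purified enzyme (200 μg/mL) with 5 mM amino acid, 5 mM sodium fatty acid (3 mM palmitate or stearate, plus 10% methanol), 10 mM ATP, 10 mM MgCl2, 1 mM DTT in 50 mM Tris-HCl pH 8.0, shaken 24 h at 25 °C. Amino acid varied by enzyme; product mass detected by UPLC-MS (ESI-negative).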

[2] = Synthesis of N-caprinoyl-amino acid derivative, N-caprinoyl-D-amino acid and N-caprinoyl-peptide using purified acylamino acid synthetase, UPLC-MS detection; type: biochemical; parameters: key: +: Detected; −: Not detected; settings: +ATP
How it was run: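 Purified enzyme (50 μg/mL) was incubated with 5 mM sodium caprate, 5 mM amino acid derivative, D-amino acid or peptide, 10 mM ATP, 10 mM MgCl2 and 1 mM DTT in 50 mM Tris-HCl, pH 8.0, for 24 h at 25 °C. After acidic methanol stop, UPLC-MS looked for the mass of the N-caprinoyl product.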

[3] = substrates L-Asp and Capric acid
[4] = substrates L-Asp and Caproic acid
[5] = substrates L-Asp and Caprylic acid
[6] = substrates L-Asp and Lauric acid
[7] = substrates L-Asp and Linoleic acid
[8] = substrates L-Asp and Palmitic acid
[9] = substrates L-Asp and myristic acid
[10] = substrates Carnosine and sodium caprate
[11] = substrates D-Ala and sodium caprate
[12] = substrates D-Asp and sodium caprate
[13] = substrates D-Cys and sodium caprate
[14] = substrates D-Glu and sodium caprate
[15] = substrates D-Ile and sodium caprate
[16] = substrates D-Lys and sodium caprate
[17] = substrates L-Asp-L-Phe and sodium caprate
[18] = substrates L-Gly-L-Gly and sodium caprate
[19] = substrates Sarcosine and sodium caprate
[20] = substrates Taurine and sodium caprate

signal of molecular weight corresponding to N-acylamino acid [1, 3] | signal of molecular weight corresponding to N-acylamino acid [1, 4] | signal of molecular weight corresponding to N-acylamino acid [1, 5] | signal of molecular weight corresponding to N-acylamino acid [1, 6] | signal of molecular weight corresponding to N-acylamino acid [1, 7] | signal of molecular weight corresponding to N-acylamino acid [1, 8] | signal of molecular weight corresponding to N-acylamino acid [1, 9] | signal of molecular weight corresponding to N-caprinoyl compound [2, 10] | signal of molecular weight corresponding to N-caprinoyl compound [2, 11] | signal of molecular weight corresponding to N-caprinoyl compound [2, 12] | signal of molecular weight corresponding to N-caprinoyl compound [2, 13] | signal of molecular weight corresponding to N-caprinoyl compound [2, 14] | signal of molecular weight corresponding to N-caprinoyl compound [2, 15] | signal of molecular weight corresponding to N-caprinoyl compound [2, 16] | signal of molecular weight corresponding to N-caprinoyl compound [2, 17] | signal of molecular weight corresponding to N-caprinoyl compound [2, 18] | signal of molecular weight corresponding to N-caprinoyl compound [2, 19] | signal of molecular weight corresponding to N-caprinoyl compound [2, 20] | Molecule
+ | + | + | + | − | + | + | + | + | + | + | + | + | + | + | + | + | + | AtGH3-5: indole-3-acetic acid-amido synthetase GH3.5 from Arabidopsis thaliana, His-tagged (protein, listed as Arabidopsis thaliana, His-tag, indole-3-acetic acid-amido synthetase GH3.5 from Arabidopsis thaliana, His-tagged) MPEAPKKESLEVFDLTLDQKNKQKLQLIEELTSNADQVQRQVLEEILTRNADVEYLRRHDLNGRTDRETFKNIMPVITYEDIEPEINRIANGDKSPILSSKPISEFLTSSGTSGGERKLMPTIEEELDRRSLLYSLLMPVMSQFVPGLENGKGMYFLFIKSESKTPGGLPARPVLTSYYKSSHFKERPYDPYTNYTSPNETILCSDSYQSMYSQMLCGLCQHQEVLRVGAVFASGFIRAIKFLEKHWIELVRDIRTGTLSSLITDPSVREAVAKILKPSPKLADFVEFECKKSSWQGIITRLWPNTKYVDVIVTGTMSQYIPTLDYYSNGLPLVCTMYASSECYFGVNLRPLCKPSEVSYTLIPSMAYFEFLPVHRNNGVTNSINLPKALTEKEQQELVDLVDVKLGQEYELVVTTYAGLCRYRVGDLLRVTGFKNKAPQFSFICRKNVVLSIDSDKTDEVELQNAVKNAVTHLVPFDASLSEYTSYADTSSIPGHYVLFWELCLDGNTPIPPSVFEDCCLAVEESFNTVYRQGRVSDKSIGPLEIKIVEPGTFDKLMDYAISLGASINQYKTPRCVKFAPIIELLNSRVVDSYFSPKCPKWVPGHKQWGSN
+ | + | + | + | − | + | + | + | + | + | + | + | + | + | + | + | + | + | OsGH3-8: probable indole-3-acetic acid-amido synthetase GH3.8 from Oryza sativa, expressed in E. coli with N-terminal His-tag (protein, listed as Oryza sativa, N-terminal His-tag, probable indole-3-acetic acid-amido synthetase GH3.8 from Oryza sativa, expressed in E. coli with N-terminal His-tag) MAVMTDVSTTGTALRTPAAGAVKEGDVEKLRFIDEMTTNVDAVQERVLGEILGRNAGTEYLTKCGLDGATDRAAFRAKVPVVSYDDLQPYIQRIANGDRSPILSTHPVSEFLTSSGTSAGERKLMPTIMDELDRRQLLYSLLMPVMNLYVPGLDKGKGLYFLFVKSETKTPGGLTARPVLTSYYKSDHFKNRPYDPYHNYTSPTAAILCADAFQSMYAQMVCGLCQRNDVLRLGAVFASGLLRAIRFLQLNWEQLADDIESGELTPRVTDPSVREAVAAILLPDPELAKLIRAECSKGDWAGIITRVWPNTKYLDVIVTGAMAQYIPTLEFYSGGLPMACTMYASSECYFGLNLRPMCDPSEVSYTIMPNMGYFEFLPVDETGAASGDATQLVDLARVEVGREYELVITTYAGLNRYRVGDVLRVTGFHNAAPQFRFVRRKNVLLSIESDKTDEAELQRAVERASALLRPHGASVVEYTSQACTKRIPGHYVIYWELLTKGAGATVVDADTLGRCCLEMEEALNTVYRQSRVADGSIGPLEIRVVRPGTFEELMDYAISRGASINQYKVPRCVTFPPIVELLDSRVVSSHFSPALPHWTPARRSE
+ | + | + | + | + | + | + | + | + | + | − | + | + | + | + | + | + | + | AtGH3-12: 4-substituted benzoates-glutamate ligase GH3.12 from Arabidopsis thaliana, His-tagged (protein, listed as Arabidopsis thaliana, His-tag, 4-substituted benzoates-glutamate ligase GH3.12 from Arabidopsis thaliana, His-tagged) MKPIFDINETFEKQLKDLTSNVKSIQDNLLEEIITPNTKTEYLQRFLIDRFDKELFKKNVPIVSYEDIKPYLDRVVNGESSDVISARTITGFLLSSGTSGGAQKMMPWNNKYLDNLTFIYDLRMQVITKHVKGVEEGKGMMFLFTKQESMTPSGLPARVATSSYFKSDYFKNRPSNWYYSYTSPDEVILCPNNTESLYCHLLCGLVQRDEVVRTGSIFASVMVRAIEVLKNSWEELCSNIRSGHLSNWVTDLGCQNSVSLVLGGPRPELADTIEEICNQNSWKGIVKRLWPNTKYIETVVTGSMGQYVPMLNYYCNDLPLVSTTYGSSETTFGINLDPLCKPEDVSYTFMPNMSYFEFIPMDGGDKNDVVDLEDVKLGCTYEPVVTNFAGLYRMRVGDIVLVTGFYNNAPQFKFVRRENVVLSIDSDKTNEEDLFKAVSQAKLVLESSGLDLKDFTSYADTSTFPGHYVVYLEVDTKEGEEKETAQFELDEEALSTCCLVMEESLDNVYKRCRFKDGSIGPLEIRVVRQGTFDSLMDFFISQGASTGQYKTPRCIKSGKALQVLETCVVAKFFSI
